Test results as given in the nanobody polyreactivity screen of Harvey et al. (2022).

Assay: yeast display, Sf9 membrane polyspecificity reagent, FACS + sequencing; frameworks hold sequencing errors
Procedure, shortened: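 Galactose induction of a Saccharomyces cerevisiae BJ5465 synthetic nanobody display library ran 36–48 hours. The cells were then stained for 1 hour at 4 °C with 10% biotinylated, detergent-solubilized Sf9 membrane reagent, pulled down on streptavidin microbeads and FACS-sorted into low and high (top ~1%) gates on expression and reagent-binding fluorescence. Labels for polyreactivity follow the gate of origin.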

| Sequence | polyreactivity (PSR sort gate) |
| --- | --- |
| QVQLVESGGGLGQAGGSLRLSCAASGSIFQPYAMGGYRQAPGKERELVAAISSSGGSTTYADSVKGRFTISRDNAKNTVYLQMNSLKPEDTAVYYCAAEYDGPYTWVDYFYHYGYWGQGTQVTVSS | low polyreactivity |
| QVQLVESGGGLGQAGGSLRLSCAASGSTFEGYAMGWYRQAPGKERELVAAISSSGGRTYYADSVKGRFTISRDNAKNTVYLQMNSLKPEDTAVYYCAADVSTAAVRSDSWGQGTQVTVSS | low polyreactivity |
| QVQLVESGGGLGQAGGSLRLSCAASGSTFTRYGMGWSRQAPGKERELVAAITTSGSSTYYADSVKGRFTISRDNAKNTVYLQMNSLKPEDTAVYYCAADWSSWGFDYWGQGTQVTVSS | low polyreactivity |
| QVQLVESGGGLGQAGGSLRLSCPASGITFVYYAMGWYRQSPGKERELVATITKSGVSTYYADSVKGRFTISRDNAKYTVYLQMNSLKPEDTAVYYCAKDVSYRFYWTYDYWGQGTQVTVSS | low polyreactivity |
| QVQLVESGGGLGQAGGSLRLTCAASGSTFWYYAMGWYRQAPGKERELVAAITSGDSTYYADSVKGRFTISRDNAKKTVYLQMNSLKPEDTAVYYCAADLPWEDGYYFYSGYTEYDYWGQGTQVTVSS | low polyreactivity |
| QVQLVESGGGLGQAGGSLSLSCAASGFNFSHYAMGWYIPAPGKERELVAAITRGGSTKYADSVKGRFTISRDNAKNTVDLEMNSLKPEDTAVYYCAKDKTYRNVRGVGYWGQGTQVTVSS | high polyreactivity |
| QVQLVESGGGLIQAVRSHRLSFAASGSTFRRYAMRWYRQEPGKEREISTSDGSTYYADSVKGRFTISRENAKNTVYLQMNSLKPEDTAVYYCAADGYRKLIEDITDDYCGQGTQVTVSS | low polyreactivity |
| QVQLVESGGGLIQPGGSLRLSCAASGSTFANNAMGWYRQAPGKESELVASISSDGSTNYADSVKGRFTISRDNAKNTVYLQMNSLKPEDTAVYYCAADWYYSADYFHFGYWGQGTQVTVSS | low polyreactivity |
| QVQLVESGGGLLQAGGILRLSCAASGRIFFANAMGWYRQAPGKERELVASITRRSGGTYYADSVKGRFTISRDNAKNTVYLQMNSLKPEDTAVYYCAARYTFPKALYYYWGQGTQVTVSS | high polyreactivity |
| QVQLVESGGGLLQAGGSHRLSCAASGILVYNAMGWYTQAPGKERELVAAISARGGRTYYADSVKGRFTISRDNAKNTVYLQMNSLKPEDSAVYYCATLETTGVNYWGQGTQVTVSS | high polyreactivity |
| QVQLVESGGGLLQAGGSLRISCAASGRTLFVYDMGWYRQAPGKERDLVAAITGDGSTNYADSVKGRFTISRDNAKNTVYLQMNSLKPEDPAVYYCNAGDRIGFWNTVEYNYWGQGTQVTVSS | low polyreactivity |
| QVQLVESGGGLLQAGGSLRLICAASGFIFVTYAMGLYRQEPGKERELVAAITNSGGTTYYADSVKGRFTISRDNAKNTVYLQMNSLKPEDTAGYYCNKPYGAETAHREFDYWGQGTQVTVSS | low polyreactivity |
| QVQLVESGGGLLQAGGSLRLICAASGITFRYYTMGWYRQAPVKETELVAAITWSGSSTYYADSVKGRFTISRDNAKNTVYLQMNSLKPEDTAVYYCAKPYHQRSAKVDYWGQGTQVTVSS | low polyreactivity |
| QVQLVESGGGLLQAGGSLRLSCAASGFILNAYTMGWYRQAPGKERELVATITINGGSTYYADSVKGRFTISRDNAKNTVYLQMNSLKPEDTAVYYCNADYWYKYDYWGQGTQVTVSS | low polyreactivity |
| QVQLVESGGGLLQAGGSLRLSCAASGFTFRYYAMGWYRQAPGKERELVAAISRSGGSTYYADSVKGRFTISRDNAKNTVYLQMNSLKPEDTAVYYCAADDRYGSRYYYWGQGTQVTVTS | high polyreactivity |
| QVQLVESGGGLLQAGGSLRLSCAASGGTFSLNVMGWYRQAPGKEREFVATITYSGGSTYYADSVKGRFTISRDNAKNTVYLQMKSLKPEDTAVYYCAASFTYSQVTEPYGYWGQGSQVTVSS | low polyreactivity |
| QVQLVESGGGLLQAGGSLRLSCAASGHIFRGYTMGWYRPAPGKERELVATITWNGVSTFYADSVKGRFTISRDTAKNTVYLQMNSLKPEDTSVYYCAAYYASHDYSGFWSDTYEYWGQGTQVTVSS | low polyreactivity |
| QVQLVESGGGLLQAGGSLRLSCAASGITFDGNAMGWYRQAPWKERELVAGISGSGGGTYYADSVKGRFTISRDNAKNTVYLQMNSLKPEDTEVYYCAADTSTSHAYDYWGQGTQVTVSS | low polyreactivity |
| QVQLVESGGGLLQAGGSLRLSCAASGLIFRSYAMGWYRQAPGKERDLVAAITDLFWSTYYADSVKGRFTISRDNAKNTVYLQMNSLKPEDTAVYYCARDDWVYTNVEMDYWGQGTQVTVSS | high polyreactivity |
| QVQLVESGGGLLQAGGSLRLSCAASGLIFVVNDMGCYTQAPGKERELVAAISYSGSSTYGDSVKGRFTISRDNAKNTVYLQMNSMNPEDTAVYYCARGSTVRTRGVGYWGQGTLVTVSS | low polyreactivity |
| QVQLVESGGGLLQAGGSLRLSCAASGLTFAFYVMGWYRQAPGKERELVAAISASGASTYYADSVKGRFTISRDNAKNTVYLQMNSLKPEDTAVYYCAADYAVYSFTEFNYWGQGTQVTVSS | high polyreactivity |
| QVQLVESGGGLLQAGGSLRLSCAASGLTFSKNAMGWYRQATGKERELVATISYSSSRTNYADSVKGRFTISRDNAMNTVYLQMNFLKPEDTAVYYCAARVYKGWPTHYDYWGQGTQVTVSS | high polyreactivity |

| Sequence | polyreactivity (PSR sort gate) |
| --- | --- |
| QVQLVESGGGLLQAGGSLRLSCAASGRIFGWYAMGWYRQAPGKERELVAAISRGGTRTNYADSVKGRFTISRDNSKNTVYLQMNSLKPEDTAVYYCAAGGSWCQNGYWGQGTQVTVSS | high polyreactivity |
| QVQLVESGGGLLQAGGSLRLSCAASGRIFSIYAMGWYRPAPGKEREMVAAIRRGGSTSYADSVKGRFTISRDNAKNTVYLLMNSLKPEDTAVYYCAARLRYLGYDYWGQGTQVTVSS | high polyreactivity |
| QVQLVESGGGLLQAGGSLRLSCAASGRIFYYYAMGWYRQAPGKEREFVARNRSSGGSTYADSVKGRFTISRDNAKNTVYLQMNSLKPEDTAVYYCARDGYTAVEYDYWGQGTQVTVSS | low polyreactivity |
| QVQLVESGGGLLQAGGSLRLSCAASGRNFTHNAMGWYRQAPRKERELVAAITSGGRTTYADSVKGRFTISRDNAKNTVYLQMNSLKPEDSAVYYCNADTGLGSLDFDKRDYWGQGTQVTVSS | low polyreactivity |
| QVQLVESGGGLLQAGGSLRLSCAASGRTYYTNAMGWYRQAPGKERELVAAISRGGGRTYYADSVKGRFTISRDNAMNSVYLQMNSLKPEDTAVYYCAASPYQGQGREYYYWGQGTQVTESS | high polyreactivity |
| QVQLVESGGGLLQAGGSLRLSCAASGSIFESYAMGWYRQAPGKERELVAAITSSGDSTYYADSVKGRFTISRDNAKNTVYLQMNSLKPEDTAVYYCAKRVPTYISTAEWGSRYDYWGQGTQVTVSS | low polyreactivity |
| QVQLVESGGGLLQAGGSLRLSCAASGSILDGNAMGWNRQAPGKERELVAAISYSGGSTYYADSVKGRFTISRDNAKNTVYLQIYSLKPEDTAVYYCAAGSISTPGRGVDKPDAYVYWGQGTQVTVSS | low polyreactivity |
| QVQLVESGGGLLQAGGSLRLSCAASGSILGPYAMGWYRQAPGKERELVAGIDATDGSTYYADSVKGRFTISRDNAKNTVYLQMNSLKPEDTAVYYCAAAPYAYYGEYNYWGQGTQVTVSS | low polyreactivity |
| QVQLVESGGGLLQAGGSLRLSCAASGSLFGGYAMAWYRQAPGKEREFGAAISGRGASTYYADSVKGRFTISRDNAKTTVYLQMNSLKPEDTAVYDCNARADGRIDGHSATYGYWGQGTQVTVSS | high polyreactivity |
| QVQLVESGGGLLQAGGSLRLSCAASGSTFEYNAMGWYRQAPGKERELVASSTNYADSVKGRFTISRDNAKNTVYLQMNSLKPEDTAVYYCAREQGVNRNHDNWGQGTQVTVSS | low polyreactivity |
| QVQLVESGGGLLQAGGSLRLSCAASGSTFGYYAMGWYRQAPGKERELVAAITRSGTNTYYADSVKGRFTISRDNAKNTVYLQMNSLKPEDTAVYYCNAVSRRRSDYWGQGTQVTVSS | high polyreactivity |
| QVQLVESGGGLLQAGGSLRLSCAASGSTFVYYAMGWYRQAPGKERELVAAISRSGGNTYYADSVKGRITISRDNAKNTVYLQRNSLKPEDTAVYYSAARSYGVQYYYWGQGTKVTVSS | high polyreactivity |
| QVQLVESGGGLLQAGGSLRLSCPASGRIFDPYTMGSYRQAPGKERELVARITRRGGRTYYADSVKGRFTISRDNAKNTVYLQMNSLKPEDTAVYYCNADFSYRYYGAYDDWGQGTQVTVSS | high polyreactivity |
| QVQLVESGGGLLQAGGSLRLSSAASVRIFPSYAMGWYRQARGKEREFVAAITRGGASTYYADSVKGRFTISRDNAKNTVYFEMNSLKPEVTAVYYCAKDAYRYGGFSWTTGMDYWGQGTQVTVSA | high polyreactivity |
| QVQLVESGGGLLQAGGSRRIRCAASGRIFWVYAMGWYRKAPGKERELVAAISSTGDGTYYADSVKVRFTISRDNAKNSVYLEMNSLKPDDTAVYYCAADFRVARSPLSGGSDFWGQGTQVTVSS | low polyreactivity |
| QVQLVESGGGLLQAGVSLRLSCASSGRIIDRNAMGWYRQAPGKERELVAAISSSGSTNYADSVKGRFTISRDNAKNTVYLQMNSLKPEDTAVYYCDARWRSVLAAGTRPVSFDYWGQGTQVTVSS | low polyreactivity |
| QVQLVESGGGLVEAGGSLRISCAASGFIFGPYAMGWYRQAPGKERELVAASWRGGSTYYADSVKGRFTISRDNAKNTVYLQMNSLKPEDTAVYYCAADVIYSLYYYWGQGTQVTVSS | low polyreactivity |
| QVQLVESGGGLVEAGGSLRISCAASGYIFLRNAMGWYRQAPGKERELVAAIRRTGGSTYYADSVKGRFTISRDNAKNSVYVQMNSLKPEASAVYYCAKRSYTGYEYWGQGNQVTVSS | low polyreactivity |
| QVQLVESGGGLVEAGGSLRLSCAASGAIFQYAMGWYRQAPGKERELVAGITYRGSTYYADSVKGRFTISRDNAKNTVYLQMNSMKPEDTAVYDCAALQRGFGYRPRRWSYDYWGQGTQVTVSS | high polyreactivity |
| QVQLVESGGGLVEAGGSLRLSCAASGNIFVNYAMEWYRQAPGKERELVAAISWSGGSTYYADSVKGRFTISRDNAKNTVYLQINRLKAEDTAVYYCAADYTGHLYYYWVQGTQVTVSS | low polyreactivity |
| QVQLVESGGGLVEAGGSLRLSCAASGRTFANNAMGWYRQAPGKERELVARISNSGSTNYADSVKGRFTISRDNANNTVYLQMNSLNPEDTAVYYCAARIVRLYSRYDYWGQGTQVTVSS | low polyreactivity |
